Results reported in article PMC4751602.

Key:
GST-hnRNP-Q1 = target: T1, GST-hnRNP-Q1 (UniProt O60506-3 1-562); assay: biotin pull-down, GST immunoblot
T1 sequence: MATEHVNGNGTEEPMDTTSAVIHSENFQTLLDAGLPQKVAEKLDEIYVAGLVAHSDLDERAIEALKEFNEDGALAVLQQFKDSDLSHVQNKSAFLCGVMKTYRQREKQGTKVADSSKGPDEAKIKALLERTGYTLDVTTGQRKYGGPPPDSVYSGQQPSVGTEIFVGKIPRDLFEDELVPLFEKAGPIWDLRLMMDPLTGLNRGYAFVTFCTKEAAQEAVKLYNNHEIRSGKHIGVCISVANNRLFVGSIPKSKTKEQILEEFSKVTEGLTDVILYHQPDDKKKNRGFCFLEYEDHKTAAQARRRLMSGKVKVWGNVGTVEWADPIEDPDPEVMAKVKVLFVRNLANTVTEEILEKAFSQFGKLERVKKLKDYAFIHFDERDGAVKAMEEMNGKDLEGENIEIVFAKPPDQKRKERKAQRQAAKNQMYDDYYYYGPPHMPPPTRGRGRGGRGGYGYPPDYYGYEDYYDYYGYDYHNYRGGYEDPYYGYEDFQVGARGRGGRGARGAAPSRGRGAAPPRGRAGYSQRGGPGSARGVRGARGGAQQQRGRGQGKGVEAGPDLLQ

hnRNP-Q1 RGG box peptide = target: T2, hnRNP-Q1 RGG box peptide (UniProt O60506-3 406-561); assay: fluorescence spectroscopy
T2 sequence: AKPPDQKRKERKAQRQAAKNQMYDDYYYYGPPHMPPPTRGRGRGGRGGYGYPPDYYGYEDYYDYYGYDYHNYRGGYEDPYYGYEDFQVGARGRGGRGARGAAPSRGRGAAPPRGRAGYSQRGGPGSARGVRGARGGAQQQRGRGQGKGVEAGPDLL

Binder: GGGAGGGAGGGAGGGA (structured_RNA) [Gap-43 5'GQ (5' biotin)]
- binding result (GST-hnRNP-Q1): binds

Binder: GGGAGGGAGGGAGGGAGAGC (structured_RNA, 2-aminopurine replaces A4) [2AP Gap-43 5'GQ RNA]
- Kd (hnRNP-Q1 RGG box peptide): 0.131 ± 0.014 µM
